# Measurements published in publication PMC11025565 (Journal of molecular biology, 2021).
# T1: integrin β3(P685-F727) transmembrane peptide with C687S and I693A (human, UniProt P05106 711-753, C687S | I693A)
# T1 chain (looked up): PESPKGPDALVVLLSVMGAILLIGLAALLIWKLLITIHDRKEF
# T2: integrin β3(P685-F727) transmembrane peptide with C687S (human, UniProt P05106 711-753, C687S)
# T2 chain (looked up): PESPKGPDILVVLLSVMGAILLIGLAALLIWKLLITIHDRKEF
# Biological target: T1, integrin β3(P685-F727) transmembrane …
# Experiment: ITC
# integrin αIIb(A958-P998) transmembrane peptide, sequence (P08514 989-1029): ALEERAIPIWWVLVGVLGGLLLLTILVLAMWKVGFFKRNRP
KXY,dH,Binder
18600 ± 800,-16 ± 0.2 kcal/mol,"ALEERAIPIWVVLVGVLGGLLLLTILVLAMWKVGFFKRNRP (peptide, UniProt P08514 989-1029, looked up) [integrin αIIb(A958-P998) transmembrane peptide with W968V]"
9500 ± 500,-13.9 ± 0.3 kcal/mol,integrin αIIb(A958-P998) transmembrane peptide (peptide) not shown

# Biological target: T2, integrin β3(P685-F727) transmembrane …
# Experiment: ITC
Binder,KXY,dH
"ALEERAIPIWVVLVGVLGGLLLLTILVLAMWKVGFFKRNRP (peptide, UniProt P08514 989-1029, looked up) [integrin αIIb(A958-P998) transmembrane peptide with W968V]",13200 ± 600,-14.3 ± 0.2 kcal/mol
integrin αIIb(A958-P998) transmembrane peptide with G972A (peptide) not shown,1080 ± 30,-14.2 ± 0.2 kcal/mol
"ALEERAIAIWVVLVGVLGGLLLLTILVLAMWKVGFFKRNRP (peptide, UniProt P08514 989-1029, looked up) [integrin αIIb(A958-P998) transmembrane peptide with P965A/W968V]",9700 ± 300,-14.6 ± 0.1 kcal/mol
integrin αIIb(A958-P998) transmembrane peptide with G972S (peptide) not shown,810 ± 20,-14.8 ± 0.2 kcal/mol

# Next, values leading:
KXY,dH,Binder
1300 ± 50,-12.5 ± 0.3 kcal/mol,"ALEERAIPIWVVLVSVLGGLLLLTILVLAMWKVGFFKRNRP (peptide, UniProt P08514 989-1029, looked up) [integrin αIIb(A958-P998) transmembrane peptide with W968V/G972S]"
1570 ± 50,-14.4 ± 0.2 kcal/mol,"ALEERAIPIWVVLVAVLGGLLLLTILVLAMWKVGFFKRNRP (peptide, UniProt P08514 989-1029, looked up) [integrin αIIb(A958-P998) transmembrane peptide with W968V/G972A]"
14000 ± 1000,-14.1 ± 0.3 kcal/mol,"ALEERAIPIWAVLVGVLGGLLLLTILVLAMWKVGFFKRNRP (peptide, UniProt P08514 989-1029, looked up) [integrin αIIb(A958-P998) transmembrane peptide with W968A]"
